For experiment [1], the target named is PilB from Geobacter metallireducens (Geobacter metallireducens). Put plainly: crystal structure; PilB:AMP-PNP; non-saturating AMP-PNP (50 μM final to 120 μM PilB); 11% PEG3350, 0.1 M magnesium formate, 0.1 M Tris pH 7.0, vapour diffusion at 20 °C; six chains in the asymmetric unit.
Experiment [2] shares this target. Put plainly: crystal structure; PilB:ADP; no exogenous nucleotide added; 13% PEG3350, 0.1 M magnesium formate, 0.1 M Tris pH 7.6, vapour diffusion at 20 °C; three chains in the asymmetric unit, hexamer from crystal packing.
For experiment [3], the target named is T1, PilB (PilBGm) (Geobacter metallireducens, UniProt Q39VU7).
T1 construct: hexamer; residues 181-568 (N2D + CTD) built; primer-encoded start MQASRL, end TVADD
T1 sequence (Q39VU7 entry or part of it): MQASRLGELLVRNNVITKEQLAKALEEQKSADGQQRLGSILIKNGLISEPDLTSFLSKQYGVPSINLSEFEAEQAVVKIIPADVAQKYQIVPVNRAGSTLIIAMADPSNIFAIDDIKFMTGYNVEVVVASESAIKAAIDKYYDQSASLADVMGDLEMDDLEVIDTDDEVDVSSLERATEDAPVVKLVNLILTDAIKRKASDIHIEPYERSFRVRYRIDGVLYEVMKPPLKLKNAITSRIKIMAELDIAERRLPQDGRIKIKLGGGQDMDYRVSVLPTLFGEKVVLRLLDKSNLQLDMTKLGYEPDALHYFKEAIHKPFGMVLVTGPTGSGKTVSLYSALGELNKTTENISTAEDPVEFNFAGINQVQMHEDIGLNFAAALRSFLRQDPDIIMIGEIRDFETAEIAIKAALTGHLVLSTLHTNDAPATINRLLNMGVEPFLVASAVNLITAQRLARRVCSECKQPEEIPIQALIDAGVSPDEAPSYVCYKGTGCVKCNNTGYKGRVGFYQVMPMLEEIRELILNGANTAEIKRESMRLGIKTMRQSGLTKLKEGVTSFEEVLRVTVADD
Put plainly: X-ray crystallography, […] Å (anisotropic). The conditions noted are these: Mg2+; pH 7.6; 20 °C; no exogenous nucleotide, ADP co-purified from E. coli; four closed ATP binding sites.

Experiment [4] concerns the target T1, PilB (PilBGm). The experiment in a line: X-ray crystallography, […] Å. The following applies: Mg2+; pH 7.0; 20 °C; non-saturating AMP-PNP; ATP binding sites (closed full occupancy, open ~70%).

In the case of “PilB from Geobacter metallireducens (enzyme)”, the stoichiometry N in experiment [1] and in experiment [2] was 6 in each case.
In the case of `Nc1ncnc2c1ncn2[C@@H]1O[C@H](COP(=O)(O)OP(=O)(O)O)[C@@H](O)[C@H]1O` [ADP], on PilB (PilBGm) [3], the “X-ray crystallography, 3.4 Å (anisotropic)” value is “In four sites, ADP and magnesium best fit the electron density”.
On to `Nc1ncnc2c1ncn2[C@@H]1O[C@H](COP(=O)(O)OP(=O)(O)NP(=O)(O)O)[C@@H](O)[C@H]1O` [AMP-PNP], for which the “X-ray crystallography, 2.3 Å” value at PilB (PilBGm) [4] was “Between two packing units, AMP-PNP, magnesium, and several highly ordered waters best fit”.

The values are drawn from publication PMC5424180, “The molecular mechanism of the type IVa pilus motors” (Nature Communications, 2017).
